Test results reported in patent publication US20220332776A1, “ANTIBODY […] INDUCED DIMERIZERS (AbCID) AS MOLECULAR […] AND USES THEREOF” (The Regents of the University of California, priority 2019, published 2022).

Legend:
[1] = test system: scFab-TC1-eGFP fusion protein; experiment: IMiD-induced degradation of scFab-TC1-eGFP in HEK 293T cells, flow cytometry for GFP fluorescence; format: cell-based; details: HEK 293T cells transfected with scFab-TC1-eGFP; 1000 nM, 100 nM or 10 nM for 20 hours; GFP fluorescence intensity
Experimental: Fab TC1 was converted into a previously described single-chain Fab construct using Gibson cloning (Hornsby, et al., Mol. Cell. Proteomics, 14:2833-2847 (2015)) and subsequently fused to eGFP by Gibson cloning into a pcDNA3.1 vector to produce an expression vector encoding an scTC1-eGFP fusion protein.
K562 and HEK293T cells utilized were from frozen stocks maintained by the Wells lab. The cell lines were not authenticated before use. No test for mycoplasma contamination was performed. Cells expressing scTC1-eGFP were transfected with FugeneHD transfection reagent purchased from Promega using the manufacturer's protocol. Unless otherwise noted all Jurkat and K562 cells lines were cultured in RPMI supplemented with 10% FBS and 1× Pen/Strep. CD19^+ K562 cells were maintained in puromycin (2 μg/mL). HEK293T cells containing the Gal4-UAS-Fluc operon were maintained in High Glucose DMEM supplemented with 10% FBS, 1× Pen/Strep, and puromycin (2 μg/mL). All cell lines were cultured at 37° C. under 5% CO2.
HEK 293T cells (ATCC® CRL-3216™) were transfected to express scFab-TC1-eGFP. Transfected cells were treated with thalidomide, lenalidomide, or pomalidomide at 1000 nM, 100 nM, or 10 nM for 20 hours, after which GFP fluorescence intensity was measured by flow cytometry. Treatment with DMSO was included as a negative control.

[2] = target: T1, pomalidomide-bound cereblon IMiD-binding domain (Pongo abelii (Sumatran orangutan) …, UniProt Q5R6Y2 306-414, biotinylated on its AviTag); experiment: Fab-phage competition ELISA (OD450): binding to immobilized IMiD-bound cereblon IMiD-binding domain with 20 nM soluble competitor divided by binding without competitor
T1 construct: not shown: TEV cut site, AviTag and HIS6 tag fused to the domain
T1 sequence: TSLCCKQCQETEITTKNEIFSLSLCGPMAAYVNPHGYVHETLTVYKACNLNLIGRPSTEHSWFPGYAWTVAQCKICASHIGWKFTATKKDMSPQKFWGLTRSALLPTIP

[3] = target: T2, cereblon IMiD-binding domain (Homo sapiens, UniProt Q96SW2); experiment: Biolayer interferometry binding kinetics of Fabs to cereblon IMiD-binding domain; details: for binding to the cereblon IMiD-binding domain alone: absence of IMiD
T2 construct: TEV cut site; HIS6 tag; made in house; host or cells: E. coli BL21(DE3)
Experimental: Biolayer interferometery data were measured using an Octet RED384 instrument (ForteBio). Biotinylated cereblon was immobilized on a Streptavidin (SA) biosensor using a 200 nM solution. Serial dilutions of Fabs in kinetics buffer (PBS, pH 7.4, 0.05% Tween-20, 0.2% BSA, 10 μM biotin) with IMiD (1 μM) or vehicle (0.05% DMSO) were used as analyte. Affinity (KD) and kinetic parameters (kon and koff) were calculated from a global fit (1:1) of the data using the Octet RED384 software.
(§1) The unique Fabs from Example 1 were sub-cloned into a bacterial expression vector, expressed, and purified (Hornsby, et al., Mol. Cell. Proteomics, 14:2833-2847 (2015)). […] To further profile the Fabs, we characterized the kinetics of cereblon IMiD-binding domain binding for Fab-TC2 and Fab-PC1 in the presence or absence of their respective IMiD by biolayer interferometry (FIGS. 3A and 3B) (Shah, et al., J. Vis. Exp., e51383 (2014)).

[4] = target: T3, cereblon IMiD-binding domain (SEQ ID NO: 25) (Homo sapiens, UniProt Q96SW2); experiment: Fab ELISA with cereblon IMiD-binding domain in the presence or absence of IMiD; details: thalidomide, lenalidomide or pomalidomide, FIG. 2G
T3 construct: TEV cut site; HIS6 tag; made in house; host or cells: E. coli BL21(DE3)
Experimental: ELISAs were performed according to standard protocols. […] 20 nM of biotinylated cereblon was captured on the NeutrAvidin-coated wells for 30 minutes followed by the addition of various concentrations of Fab with either 5 μM thalidomide, lenalidomide, or pomalidomide or 0.05% DMSO for 30 minutes. The bound Fabs were then detected using a horseradish peroxidase (HRP)-conjugated anti-Fab monoclonal antibody (Jackson ImmunoResearch 109-036-097).
as §1

[5] = in the presence of lenalidomide
[6] = in the presence of pomalidomide

O=C1CCC(N2C(=O)c3ccccc3C2=O)C(=O)N1 (stereo not drawn) [thalidomide]
GFP expression compared to the DMSO control [1]: reduced GFP expression

Nc1cccc2c1CN(C1CCC(=O)NC1=O)C2=O (stereo not drawn) [lenalidomide]
GFP expression compared to the DMSO control [1]: reduced GFP expression

Nc1cccc2c1C(=O)N(C1CCC(=O)NC1=O)C2=O (stereo not drawn) [pomalidomide]
GFP expression compared to the DMSO control [1]: reduced GFP expression

B1: Fab-PC1 (Fab)
heavy: EISEVQLVESGGGLVQPGGSLRLSCAASGFNVSSYSIHWVRQAPGKGLEWVASISSYSGSTSYADSVKGRFTISADTSKNTAYLQMNSLRAEDTAVYYCARSYFVEYYYYYGWPWGLDYWGQGTLVTVSSASTKGPSVFPLAPSSKSTSGGTAALGCLVKDYFPEPVTVSWNSGALTSGVHTFPAVLQSSGLYSLSSVVTVPSSSLGTQTYICNVNHKPSNTKVDKKVEPKSCDKTHTGGSHHHHHH
light: SDIQMTQSPSSLSASVGDRVTITCRASQSVSSAVAWYQQKPGKAPKLLIYSASSLYSGVPSRFSGSRSGTDFTLTISSLQPEDFATYYCQQSSYSYLFTFGQGTKVEIKRTVAAPSVFIFPPSDSQLKSGTASVVCLLNNFYPREAKVQWKVDNALQSGNSQESVTEQDSKDSTYSLSSTLTLSKADYEKHKVYACEVTHQGLSSPVTKSFNRGECGGSDYKDDDDK
notes: chains assembled here by putting the CDRs in place of the scaffold's own CDR stretches; also called Fab-phage clone PC1
competition selectivity ratio [2]: < 0.5

B2: Fab-PC1: Fab-phage clone from pomalidomide-cereblon IMiD-binding domain selection; CDRs SEQ ID NO: 4, 9, 14, 21, 22, 19 (antibody)
heavy: B1 heavy
light: B1 light
binding to the cereblon IMiD-binding domain alone [3]: no significant binding | binding to the cereblon IMiD-binding domain [3, 5]: potent and reversible binding | binding to the cereblon IMiD-binding domain [3, 6]: potent and reversible binding | binding to the cereblon IMiD-binding domain ([3]; in the presence of thalidomide): potent and reversible binding

B3: Fab-TC2: Fab-phage clone from thalidomide-cereblon IMiD-binding domain selection; CDRs SEQ ID NO: 2, 7, 12, 21, 22, 17 (antibody)
heavy: EISEVQLVESGGGLVQPGGSLRLSCAASGFNVSSSSIHWVRQAPGKGLEWVASIYSYYGSTYYADSVKGRFTISADTSKNTAYLQMNSLRAEDTAVYYCARTDSWYYYRYGGMDYWGQGTLVTVSSASTKGPSVFPLAPSSKSTSGGTAALGCLVKDYFPEPVTVSWNSGALTSGVHTFPAVLQSSGLYSLSSVVTVPSSSLGTQTYICNVNHKPSNTKVDKKVEPKSCDKTHTGGSHHHHHH
light: SDIQMTQSPSSLSASVGDRVTITCRASQSVSSAVAWYQQKPGKAPKLLIYSASSLYSGVPSRFSGSRSGTDFTLTISSLQPEDFATYYCQQYSWWWMPITFGQGTKVEIKRTVAAPSVFIFPPSDSQLKSGTASVVCLLNNFYPREAKVQWKVDNALQSGNSQESVTEQDSKDSTYSLSSTLTLSKADYEKHKVYACEVTHQGLSSPVTKSFNRGECGGSDYKDDDDK
binding to the cereblon IMiD-binding domain alone [3]: no significant binding | binding compared to binding in the presence of thalidomide [3, 5]: less potent binding | binding to the cereblon IMiD-binding domain [3, 5]: potent and reversible binding | binding compared to binding in the presence of thalidomide [3, 6]: less potent binding | binding to the cereblon IMiD-binding domain [3, 6]: potent and reversible binding | binding to the cereblon IMiD-binding domain ([3]; in the presence of thalidomide): potent and reversible binding | binding to the cereblon IMiD-binding domain bound to a different IMiD than the one used for selection [4]: all except one of the Fabs (Fab-phage clone TC2) was able to bind
